According to patent publication US20060212953, “Tr2, tr4, tr2/tr4 double knockouts and uses thereof” (published 2006):

Molecular target: T1, TR4 (testicular orphan nuclear receptor 4, NR2C2) (UniProt P49116 SEQ:1-596)
T1 sequence: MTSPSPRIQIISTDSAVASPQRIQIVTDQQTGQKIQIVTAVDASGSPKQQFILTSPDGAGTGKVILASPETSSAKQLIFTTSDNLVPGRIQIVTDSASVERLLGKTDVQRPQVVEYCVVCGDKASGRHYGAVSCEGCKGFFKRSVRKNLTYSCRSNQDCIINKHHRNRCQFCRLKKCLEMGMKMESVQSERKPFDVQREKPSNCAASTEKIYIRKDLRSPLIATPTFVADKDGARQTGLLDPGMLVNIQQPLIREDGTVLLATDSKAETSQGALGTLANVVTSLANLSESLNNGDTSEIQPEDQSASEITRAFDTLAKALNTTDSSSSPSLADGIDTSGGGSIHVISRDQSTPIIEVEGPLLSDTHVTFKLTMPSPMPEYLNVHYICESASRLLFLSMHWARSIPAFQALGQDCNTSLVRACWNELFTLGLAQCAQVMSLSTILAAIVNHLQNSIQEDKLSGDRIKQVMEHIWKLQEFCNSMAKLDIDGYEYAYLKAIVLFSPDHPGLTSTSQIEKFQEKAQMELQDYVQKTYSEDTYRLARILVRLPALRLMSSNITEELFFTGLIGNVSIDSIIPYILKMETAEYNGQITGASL
Test: EMSA; supershifted by monoclonal anti-TR4 antibody #15; 10 mM HEPES pH 7.9, 100 mM KCl, 2.5 mM MgCl2, 0.5 mM EDTA, 1 mM DTT, room temperature 15 min
Settings: tags: rabbit reticulocyte lysate (Promega); label: 32P 5' end
Experimental: TR4 proteins were synthesized in rabbit reticulocyte lysate (Promega), according to the manufacturer's instructions. The oligonucleotide probe (SEQ ID NO:46 nNOS-NHR, bp-198 to -211, 5′-[…]-3′) was end-labeled with [γ]³²P in a T4 polynucleotide kinase reaction (New England Biolabs). The EMSA reaction was performed with 2 μl TR4-containing lysate in an EMSA buffer (10 mM HEPES, pH 7.9, 6% (v/v) glycerol, 2% (v/v) Ficoll, 100 mM KCl, 0.5 mM EDTA, 2.5 mM MgCl₂, and 1 mM dithiothreitol). The reaction mixtures were incubated for 15 min. at room temperature, in the presence or absence of a mouse monoclonal anti-TR4 antibody (#15). The protein-DNA complexes were analyzed on a 5% native polyacrylamide gel. The results were visualized by autoradiography (Storm PhosphorImaging System, Amersham Pharmacia).

B1: nNOS-NHR probe (dsDNA)
DNA 1: CTGGTCAACCTTGACTTCCTT
DNA 2: AAGGAAGTCAAGGTTGACCAG
Does B1 bind?
Result: binds
